One assay has as its target T1, human Angiopoietin-1 (human, UniProt Q15389 20-498, limits assumed).
T1 construct: Bought recombinant protein (R&D Systems 293-AN-025/CF) or supernatant of transfected 293F cells; also called Ang-1; recombinant Ang-1
T1 sequence: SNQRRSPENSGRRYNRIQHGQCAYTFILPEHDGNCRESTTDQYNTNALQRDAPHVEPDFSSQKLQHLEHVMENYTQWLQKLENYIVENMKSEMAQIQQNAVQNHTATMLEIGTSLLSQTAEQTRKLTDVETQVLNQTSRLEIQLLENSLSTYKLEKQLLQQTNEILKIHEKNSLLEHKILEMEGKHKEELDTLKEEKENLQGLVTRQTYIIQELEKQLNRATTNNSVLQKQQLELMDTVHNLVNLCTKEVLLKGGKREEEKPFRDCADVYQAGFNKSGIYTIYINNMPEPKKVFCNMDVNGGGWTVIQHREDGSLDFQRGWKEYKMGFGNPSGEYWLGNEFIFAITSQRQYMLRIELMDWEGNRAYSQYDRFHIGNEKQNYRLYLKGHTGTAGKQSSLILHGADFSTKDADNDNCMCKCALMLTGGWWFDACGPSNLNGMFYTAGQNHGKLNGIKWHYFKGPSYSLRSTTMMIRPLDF
As to the kind of experiment: Biacore, mAb captured. (In SPR one partner is held on a chip, and binding of the other changes the refractive index at the surface.)

Assay [1] addresses T2, human Angiopoietin-2 (human, UniProt O15123 19-496).
T2 construct: Mostly bought recombinant protein (R&D Systems 623-AM/CF, 623-AN; biotinylated BT623) or supernatant of transfected 293F cells; also called Ang-2; rhAng-2
T2 sequence: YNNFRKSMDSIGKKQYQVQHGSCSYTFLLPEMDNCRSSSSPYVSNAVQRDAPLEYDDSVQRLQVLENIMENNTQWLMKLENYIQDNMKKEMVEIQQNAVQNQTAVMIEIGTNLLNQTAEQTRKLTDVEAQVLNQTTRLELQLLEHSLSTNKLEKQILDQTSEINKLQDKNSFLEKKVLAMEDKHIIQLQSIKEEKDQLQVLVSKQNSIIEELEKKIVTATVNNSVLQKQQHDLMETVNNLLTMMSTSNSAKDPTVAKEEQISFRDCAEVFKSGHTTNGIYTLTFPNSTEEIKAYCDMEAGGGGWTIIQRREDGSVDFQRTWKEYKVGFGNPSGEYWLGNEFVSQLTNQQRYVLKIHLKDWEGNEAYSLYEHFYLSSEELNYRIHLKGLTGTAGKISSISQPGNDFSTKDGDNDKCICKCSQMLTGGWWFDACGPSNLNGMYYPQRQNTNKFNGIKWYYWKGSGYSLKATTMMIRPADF
As to the kind of experiment: FACS: inhibition of Ang-2 binding to HEK293F/Tie2 cells. As for the experimental part:
Cell suspension of 4 million cells/mL in FACS Buffer were prepared, and then aliquoted to a 96-well polypropylene plate with 50 ul per well. […] Cells were washed by centrifuging the plate at 1,200 rpm for 5 minutes, removing the supernatant by aspirating, and resuspending the cells with 200 ul per well of FACS Buffer. Washing procedures were repeated twice. The cells were then suspended with 100 ul of mouse Anti-6×-Histidine antibody diluted to 2 ug/ml in FACS Buffer, and incubated at room temperature for 30 minutes. After washing, the cells were suspended in 100 ul of PE-conjugated goat anti-mouse-IgG, which was diluted 1:100 in FACS Buffer, for incubation at room temperature for 30 minutes. The volume of the samples were brought to 300 ul with FACS Buffer, and measured with FACS Calibur.

Assay [2] concerns the target T2, human Angiopoietin-2. As to the kind of experiment: high resolution Biacore, mAb immobilized, 1st experiment. As for the experimental part: (§1) The mAb was then immobilized on flow cells 1-3 (CM5 Biacore chip) using routine amine coupling, leaving flow cell 4 as the reference flow cell.
(§2) The antibody surfaces were regenerated with a 6-second pulse of 15 mM NaOH after each injection cycle.
(§3) The sample injections alternated with three blank injection cycles. Each surface was regenerated with a 6-second pulse of 15 mM NaOH after each long off-rate injection cycle.

Assay [3] deals with T2, human Angiopoietin-2. As to the kind of experiment: high resolution Biacore, mAb immobilized, 2nd experiment. Here is the method: as §1, §2, §3
The target of assay [4] is T2, human Angiopoietin-2. As to the kind of experiment: high resolution Biacore, 2nd experiment; kd held constant (*). As for the experimental part:
as §1, §2, §3

In assay [5] the target is T2, human Angiopoietin-2. The assay can be described thus: KinExA, KD-controlled titration; KinExA, KD-controlled titration, 5 days at ~24 C.
Method: For this purpose, a KinExA 3000 instrument was utilized. […] The beads were then centrifuged and washed once with blocking buffer (1×PBS, 10 mg/ml BSA), centrifuged again, and then incubated in blocking buffer for one hour at 24° C. After blocking, the beads were diluted in approximately 30 mL of HBS buffer (0.01 M Hepes, 0.15 M NaCl, pH 7.4) in a standard KinExA bead reservoir vial and placed on the instrument.
The KinExA instrument method used for the analysis of these solutions consisted of a bead packing step in which the PMMA beads were packed into a glass capillary, and the equilibrated solutions were flowed through the bead column at 0.25 mL/min for 6 min (1.5 mL) in duplicate. […] The fluorescence emission from the bead pack was measured at 670 nm with excitation at 620 nm. The resulting fluorescence measurements were converted into “% free nab binding site” versus total antigen concentration using the accompanying KinExA software package (version 1.0.3, Sapidyne, Inc.). The resulting KD-controlled titration curve was fit with the KinExA software to a 1:1 equilibrium isotherm with a drift correction factor included.
Assay [6] has as its target T2, human Angiopoietin-2. The assay can be described thus: competition ELISA: binding of recombinant human Ang-2 to coated human Tie2/Fc, mAb 3.19.3 titrated, bound Ang-2 detected with polyclonal anti-Ang-2. As for the experimental part: (§4) For this purpose, an ELISA plate was coated with 4 μg/ml of hTie2/Fc (R&D Systems, Inc.) at 100 μl/well, and the wells were blocked as routine at 4° C. overnight.
(§5) Each concentration of the mAb was tested in triplicate. […] OD650 was determined 30 min after the HRP substrate was added.
Background: An ELISA detects its analyte on a solid surface through an enzyme-linked reagent.

The target in a further assay is T3, mouse Angiopoietin-2 (mouse, UniProt O35608 19-496).
T3 construct: Used as conditioned medium of transfectants; also called mAng-2; mouse Ang-2
T3 sequence: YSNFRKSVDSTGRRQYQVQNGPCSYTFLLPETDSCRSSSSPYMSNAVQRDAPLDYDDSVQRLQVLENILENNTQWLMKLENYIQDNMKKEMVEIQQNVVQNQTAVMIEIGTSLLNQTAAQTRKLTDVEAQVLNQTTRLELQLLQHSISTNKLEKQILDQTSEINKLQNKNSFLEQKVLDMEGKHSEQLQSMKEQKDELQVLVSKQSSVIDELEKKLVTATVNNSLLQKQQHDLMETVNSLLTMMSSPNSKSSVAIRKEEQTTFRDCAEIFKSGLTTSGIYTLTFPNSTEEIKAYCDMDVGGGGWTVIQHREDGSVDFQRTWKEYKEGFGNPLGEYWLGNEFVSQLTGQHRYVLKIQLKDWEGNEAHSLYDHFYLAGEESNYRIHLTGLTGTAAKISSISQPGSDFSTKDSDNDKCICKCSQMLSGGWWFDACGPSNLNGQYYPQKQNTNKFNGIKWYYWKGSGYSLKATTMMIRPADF
The assay can be described thus: competition ELISA: binding of mouse Ang-2 (culture supernatant) to coated human Tie2/Fc, mAb 3.19.3 titrated, bound Ang-2 detected with polyclonal anti-Ang-2. Here is the method:
as §4, §5

The target in assay [7] is T2, human Angiopoietin-2. As to the kind of experiment: Biacore, mAb immobilized, 8 h dissociation.

B1: mAb 3.3.2 (antibody, V domains shown)
VH: EVQLVESGGGLVQPGGSLRLSCAVSGFTFSSYWMSWVRQAPGKGLEWVANIKQDGSEKYYVDSVKGRFTISRDNAKNSLYLQMNSLRAEDTAVYYCARDQGIAVAGPFDYWGQGTLVTVSS
VL: EIVMTQSPATLSVSPGERATLSCRASQTVSSDLAWYQQKPGQAPRLLIYGASIRATGIPARFSGSGSGTEFTLTISSLQSEDFAVYSCQQYYNWWTFGQGTKVEIKR
notes: Human hybridoma IgG (XenoMouse); also called 3.3.1; x3.3
For the molecule B1, the binding result with human Angiopoietin-1 is listed as “no binding (tested: 87.4 nM Ang-1)”.

B2: mAb 3.19.3 (antibody, V domains shown)
VH: QVQLVESGGGVVQPGRSLRLSCAASGFTFTNYGMHWGRQAPGKGLEWVAVISHDGNNKYYVDSVKGRFTISRDNSKNTLYLQMNSLRAEDTAVYYCAREGIDFWSGLNWFDPWGQGTLVTVSS
VL: EIVLTQSPGTLSLSPGERATLSCRASQSITGSYLAWYQQKPGQAPRLLICGASSWATGIPDRFSGSGSGTDFTLTISRLEPEDFAVYYCQQYSSSPITFGQGTRLEIKR
notes: Human hybridoma IgG (XenoMouse); also called x3.19
For orientation: EC50 means the concentration that produces a half-maximal response. Read a low EC50 as a more potent agent. As a reminder, the Kd is a measure of binding affinity in units of concentration. The term kon denotes the rate constant with which the complex forms. Higher therefore signals faster complex formation. For orientation: koff means the rate constant with which the complex falls apart. A higher koff goes with fast dissociation. As to B2, the EC50 with human Angiopoietin-2 [1] is 731 pM. For the same molecule, the Kd with human Angiopoietin-2 [2] turned out to be 5.3 pM; with human Angiopoietin-2 [3] it was 5.6 pM; in the assay with human Angiopoietin-2 [5] it was 86.4 pM. Moreover, the results for the kon with human Angiopoietin-2 [2] and with human Angiopoietin-2 [3] were 189000 M⁻¹ s⁻¹ and 178000 M⁻¹ s⁻¹, respectively. The molecule further had a koff with human Angiopoietin-2 [4] of around 1e-06 s⁻¹. Besides, the “IC50 (read off the curve)” value in the assay with human Angiopoietin-2 [6] was around 0.8 µg/mL; with mouse Angiopoietin-2, around 2 µg/mL.

B3: mAb 5.35.1 (antibody, V domains shown)
VH: EVQLVESGGGVVRPGGSLRLSCTTSGFTFDDYGMSWVRQAPGKGLEWVSGINWNGGSTVYADSVKGRFTISRDSAKNSLYLQMNSLRAEDTALYHCARNKQWLWYFDLWGRGTLVTVSS
VL: EIVMTQSPATLSVSPGERATLSCRASQSVSSNLAWYQQKPGQAPRLLIYGASTRATGIPARFSGSGSGTEFTLTISSLQSEDFAVYYCEQYNNWPLTFGGGTKVEIKR
notes: Human hybridoma IgG (XenoMouse); also called x5.35
In the assay with human Angiopoietin-2 [7], B3 came in with a Kd of 3.31 pM, a koff of 1.87e-06 s⁻¹ and a kon of 564000 M⁻¹ s⁻¹.

The record behind these values is patent publication US20080267971A1 (published 2008).
